Measurements as given in US20240245795A1, “PREPARATION METHOD AND APPLICATION OF ANTIBODY DRUG CONJUGATE” (priority 2021, published 2024).

Tested on: Human lung squamous carcinoma cells NCI-H2170
Assay: In vivo anti-tumor experiment (5), NCI-H2170 xenograft
Parameters: species or system female nude mice
Settings: 5 mg/kg i.v. single dose
Method: Human lung squamous carcinoma cells NCI-H2170 (ATCC) were suspended in physiological saline. 4×10^7 cells were subcutaneously transplanted into the right flank of female nude mice, which were randomized into groups on day 6. Taking the grouping day as day 0, Antibody Conjugate 13, DS-1062a (the positive control drug) and the hIgG-A-11 conjugate as a negative control group were administered intravenously to the tail at a dose of 5 mg/kg respectively on day 0.

B1: DS-1062a (conjugate, chains of the INN, looked up)
VH: QVQLVQSGAEVKKPGASVKVSCKASGYTFTTAGMQWVRQAPGQGLEWMGWINTHSGVPKYAEDFKGRVTISADTSTSTAYLQLSSLKSEDTAVYYCARSGFGSSYWYFDVWGQGTLVTVSS
VL: DIQMTQSPSSLSASVGDRVTITCKASQDVSTAVAWYQQKPGKAPKLLIYSASYRYTGVPSRFSGSGSGTDFTLTISSLQPEDFAVYYCQQHYITPLTFGQGTKLEIK
modifications: deruxtecan payload
  anti-tumor activity: showed anti-tumor activity
